Source: patent publication US9804152B1, “Human ex vivo skin model and its use in methods of identifying modulators of skin inflammation” (The Procter & Gamble Company, priority 2012, dated 2017)
Marks after values point to notes of the source that are not given here.

Legend:
Assay type in all cases: cell-based
[1] = test system: ex vivo human skin sample; test: Histological analysis of ex vivo skin samples; settings: IL-22 at 20 ng/mL, biopsied six days after treatment, vs untreated sample at 24 hours
Protocol: The first sample was analyzed 24 hours after being collected (i.e., biopsied) from an untreated ex vivo skin sample, and the second sample was collected (i.e., biopsied) from an ex vivo skin sample six days after the skin sample was treated with IL-22 at 20 ng/mL. […] Also consistent was the effect of 10 μM clobetasol in inhibiting inflammation, as measured by a reduction in marker gene expression. In particular, S100A7 was induced about 34-fold relative to untreated skin samples, with clobetasol leading to about 26-fold increase in expression relative to the untreated control. For IL-8, induction was about 16-fold and clobetasol reduced that to about 3-fold. For IL-6, induction was about 6-fold and clobetasol inhibited that value to about 0.3-fold relative to control values. For DEFB4, induction was about 800-fold and clobetasol reduced that increase to about 200-fold relative to controls.

[2] = test system: ex vivo human skin sample; test: Inducers of inflammation: inflammation marker secreted into the media by ex vivo skin samples (ELISA); settings: 20 ng/ml IL-22 only, day 4; untreated about 5,800 pg/ml
Source text: (§1) This Example describes the materials and methods used in preparing ex vivo skin samples for use according to the methods disclosed herein. Materials used in preparation of ex vivo skin samples for use in the disclosed screening methods included: Dulbecco's Modified Eagle Medium (DMEM) plus Glutamax, antibiotic and antimycotics, 1× phosphate-buffered saline (PBS), 150×15 mm sterile culture dishes, sterile gauze 4×4, disposable safety scalpels, 4 mm disposable biopsy punch, 6-well cell-culture inserts, disinfected tweezers, cotton-tipped applicators, 6-well culture plates, ruled, disinfected cutting mat (12×12), scraper handle, tissue freezing medium, biopsy cassettes, frozen-tissue freezing vessels, 10% formalin, shipping containers for fixed tissue, and biohazard/sharps containers. Media was prepared in advance of the arrival of ex vivo skin. The skin arrived with the dermis (fat) side down on sterile DMEM soaked gauze in a sterile culture dish. The culture dish was taped shut and in a biohazard zip-lock baggie on an ice pack in a secondary container.
(§2) On arrival, the skin was removed from the bag and soaked in 3×DMEM media (3× refers to concentration of antibiotic and antimycotics) and stored at 4° C. for 1 hour. After 1 hour, the skin was removed from the 3×DMEM and rinsed with sterile 1×PBS. The skin was placed in a clean culture dish containing gauze soaked with 1×DMEM. The sample was put in culture the same day as arrival. If necessary, however, the ex vivo skin samples can be stored at 4° C. overnight.
In preparation for culture, the following was performed: on a cutting mat, the skin was flipped over so that the epidermis was down and the subcutis (fat) was exposed. The fat was removed with a disposable scalpel by carefully grasping one corner of the skin with sterile serrated forceps and scraping the fat away with the blade held at a 45° angle to the skin. After the fat was removed, the surgical edges were cut off with a scalpel using a scraper as a straight edge guide and to hold the skin in place. […]

[3] = test system: ex vivo human skin sample; test: Inducers of inflammation: inflammation marker gene expression in ex vivo skin samples (PCR); settings: for CALML5 Up-Down Regulation (relative to control) / DEFB4 Up-Down Regulation (relative to control) / FLG Up-Down Regulation (relative to control) / IL-6 Up-Down Regulation (relative to control) / IL-8 Up-Down Regulation (relative to control) / KRT6A Up-Down Regulation (relative to control) / KRT10 Up-Down Regulation (relative to control) / S100A7 Up-Down Regulation (relative to control) / TNF-α Up-Down Regulation (relative to control): IL-17 or IL-22 alone, 96 hours
Source text: as §1, §2
In preparation for culture, the following was performed: on a cutting mat, the skin was flipped over so that the epidermis was down and the subcutis (fat) was exposed. The fat was removed with a disposable scalpel by carefully grasping one corner of the skin with sterile serrated forceps and scraping the fat away with the blade held at a 45° angle to the skin. After the fat was removed, the surgical edges were cut off with a scalpel using a scraper as a straight edge guide and to hold the skin in place. Using the scraper as a guide, the skin was cut into 1.25 cm (2×2 squares on grid) wide strips using a ruler to measure the width. The strip was rinsed in a 100 mm culture dish containing 1×PBS. The strips were cut into 1.25 cm^2 squares and placed in a 100 mm culture dish on 1×DMEM-soaked gauze until they were put into culture 30 minutes later.
Culture plates were prepared that included 2.5 ml of media or media with treatment (e.g., a candidate modulator, an inflammation inducer, and/or an inhibitor of inflammation) in each well of a 6-well plate. One Millicell culture insert was added to each well and 100 μl of 1× DMEM was put in the center of each insert membrane. Squares of skin tissue were selected randomly and placed into each of the inserts (one piece of skin per insert), on top of the media on the membrane. The plates were stored at 33° C., with fresh media changes daily. As a control, baseline tissue measurements were collected from excess waste (cryogenics were used for snap-freezing). Baseline biopsy collection included two 4 mm punches for an MTT colorimetric assay (described below); one 4 mm punch was snap-frozen in OCT tissue compound for fresh histology; one 4 mm punch was fixed in 10% formalin and sent out for paraffin embedding. Expression measurements of inflammation marker genes were performed using PCR and primers appropriate to the known sequence of the gene(s) of interest.
Culturing and treatment of the ex vivo skin model comprised replicates of n=5. Before experimental treatment, compounds (e.g., a candidate modulator, an inflammation inducer, or a suppressor of inflammation) were solubilized in appropriate solvents (including PBS, media, alcohol, and DMSO). Appropriate dilutions were made for treatment and 15 ml of media was used per plate per day for treatment, with 2.5 ml of media per well under the cell culture insert. Media was pre-warmed and changed every day during the experiment.

B1: IL-22: pro-inflammatory cytokine used as inducer of inflammation; also inducer of cell proliferation (protein, UniProt Q9GZX6 34-179, looked up)
Interleukin-22: APISSHCRLDKSNFQQPYITNRTFMLAKEASLADNNTDVRLIGEKLFHGVSMSERCYLMKQVLNFTLEEVLFPQSDRFQPYMQEVVPFLARLSNRLSTCHIEGDDLHIQRNVQKLKDTVKKLGESGEIKAIGELDLLFMSLRNACI
[1]
  histology: skin cell proliferation (basal layer): clearly exhibits a proliferative basal layer
[2]
  IL-8 secreted into the media: about 5,500 pg/ml
[3]
  induction of inflammation in ex vivo skin samples, in words: shown to induce inflammation in ex vivo skin samples
[3]; 2 ng/ml IL-22
  DEFB4 expression relative to an untreated ex vivo skin sample: 0.00
  KRT10 fold-expression level relative to an untreated ex vivo skin sample: about 0.00 fold
[3]; 20 ng/ml IL-22
  DEFB4 expression relative to an untreated ex vivo skin sample: about 3.00
  KRT10 fold-expression level relative to an untreated ex vivo skin sample: about −3.00 fold
[3]; 200 ng/ml IL-22
  DEFB4 expression relative to an untreated ex vivo skin sample: about 20.00
  KRT10 fold-expression level relative to an untreated ex vivo skin sample: about −18.00 fold
[3]; 2 ng/ml
  CALML5 Up-Down Regulation (relative to control): 1.17*
  DEFB4 Up-Down Regulation (relative to control): −1.03
  FLG Up-Down Regulation (relative to control): 1.28
  IL-6 Up-Down Regulation (relative to control): 1.35
  IL-8 Up-Down Regulation (relative to control): 1.71*
  KRT6A Up-Down Regulation (relative to control): −1.16
  KRT10 Up-Down Regulation (relative to control): 1.40
  S100A7 Up-Down Regulation (relative to control): 1.02
  TNF-α Up-Down Regulation (relative to control): 1.95*
[3]; 20 ng/ml
  CALML5 Up-Down Regulation (relative to control): −2.29*
  DEFB4 Up-Down Regulation (relative to control): 2.69*
  FLG Up-Down Regulation (relative to control): −10.55*
  IL-6 Up-Down Regulation (relative to control): 1.30
  IL-8 Up-Down Regulation (relative to control): 1.43
  KRT6A Up-Down Regulation (relative to control): 1.32
  KRT10 Up-Down Regulation (relative to control): −2.69*
  S100A7 Up-Down Regulation (relative to control): 2.04*
  TNF-α Up-Down Regulation (relative to control): 1.56*
[3]; 200 ng/ml
  CALML5 Up-Down Regulation (relative to control): −4.61*
  DEFB4 Up-Down Regulation (relative to control): 20.23*
  FLG Up-Down Regulation (relative to control): −13.37*
  IL-6 Up-Down Regulation (relative to control): 1.31
  IL-8 Up-Down Regulation (relative to control): 1.72*
  KRT6A Up-Down Regulation (relative to control): 1.08
  KRT10 Up-Down Regulation (relative to control): −17.54*
  TNF-α Up-Down Regulation (relative to control): 1.33*
